Assay results: patent US11834518 (dated 2023)
Where two headings read alike, the source gives them in different places. Square brackets hold non-standard residues; d marks the D form. Ends that are not written are not given here. F2Pmp = N[C@@H](Cc1ccc(C(F)(F)P(=O)(O)O)cc1)C(=O)O; pY = N[C@@H](Cc1ccc(OP(=O)(O)O)cc1)C(=O)O; AEEA = NCCOCCOCC(=O)O

Assays:
STEP32 C/S [1] = target: T1, STEP32 C/S (human, UniProt P54829); assay: FP competition
T1 chain: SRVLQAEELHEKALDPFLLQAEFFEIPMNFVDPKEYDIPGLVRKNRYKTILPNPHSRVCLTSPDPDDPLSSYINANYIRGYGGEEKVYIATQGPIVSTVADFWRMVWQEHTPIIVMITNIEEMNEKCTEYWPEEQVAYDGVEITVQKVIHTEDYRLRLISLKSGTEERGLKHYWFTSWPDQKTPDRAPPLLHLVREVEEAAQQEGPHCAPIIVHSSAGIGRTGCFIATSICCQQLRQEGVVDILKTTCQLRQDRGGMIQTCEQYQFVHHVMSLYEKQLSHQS

STEP32 C/S [2] = target: T1, STEP32 C/S; assay: FP competition
STEP32 C/S [3] = target: T1, STEP32 C/S; assay: FP competition
STEP32 WT [4] = target: T2, STEP32 WT (human, UniProt P54829); assay: SPR 25C
T2 chain: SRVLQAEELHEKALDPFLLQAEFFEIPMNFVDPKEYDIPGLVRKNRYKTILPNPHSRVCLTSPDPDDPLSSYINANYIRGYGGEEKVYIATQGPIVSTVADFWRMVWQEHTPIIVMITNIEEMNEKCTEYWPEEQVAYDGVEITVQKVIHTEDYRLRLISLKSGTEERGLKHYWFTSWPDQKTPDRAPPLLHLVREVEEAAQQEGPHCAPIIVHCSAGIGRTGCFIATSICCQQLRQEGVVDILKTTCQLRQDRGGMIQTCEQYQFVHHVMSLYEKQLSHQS

STEP32 WT [5] = target: T2, STEP32 WT; assay: SPR 25C
STEP32 C/S [6] = target: T1, STEP32 C/S; assay: SPR 25C
STEP32 C/S [7] = target: T1, STEP32 C/S; assay: FP competition
STEP32 C/S [8] = target: T1, STEP32 C/S; assay: SPR 25C
STEP32 C/S [9] = target: T1, STEP32 C/S; assay: SPR 25C
STEP32 C/S [10] = target: T1, STEP32 C/S; assay: SPR 25C

B1: p3YAla5 (peptide)
chain: ATYKAGYNV[pY]G
With B1 the Ki (STEP32 C/S [1]) was 4140 nM.

B2: p-fin 1 (peptide)
chain: GYNV[pY]
B2 was tested, and the IC50 (STEP32 C/S [2]) was 8010 nM and the Ki (STEP32 C/S [3]) was 1900 nM.

B3: 3Ysh-3-F2Pmp (peptide)
chain: EGYNV[F2Pmp]
With B3 the Kd (STEP32 WT [4]) was 240 nM and the Kd (STEP32 WT [5]) was 242 nM.

B4: p-fin 2 (peptide)
chain: DGYNV[pY]
Binder B4 has an IC50 (STEP32 C/S [2]) of 7150 nM and a Ki (STEP32 C/S [3]) of 1850 nM.

B5: p3YAla7 (peptide)
chain: ATYKEGANV[pY]G
In the case of B5, the Ki (STEP32 C/S [1]) is reported as 4450 nM.

B6: 3Y-F2Pmp (peptide)
chain: ATYKEGYNV[F2Pmp]G
Binder B6 has a Kd (STEP32 WT [4]) of 270 nM and a Kd (STEP32 WT [5]) of 268 nM.

B7: p3Ysh-7 (peptide)
chain: [AEEA]FS[pY]G
With B7 the binding result (STEP32 C/S [6]) was “no binding” and the Ki (STEP32 C/S [7]) was 4570 nM.

B8: p3YAla9 (peptide)
chain: ATYKEGYNA[pY]G
Binder B8 has a Ki (STEP32 C/S [1]) of 5940 nM.

B9: p3YAla8 (peptide)
chain: ATYKEGYAV[pY]G
B9 gave a Ki (STEP32 C/S [1]) of 2470 nM.

B10: p3YAla6 (peptide)
chain: ATYKEAYNV[pY]G
Binder B10 has a Ki (STEP32 C/S [1]) of 2310 nM.

B11: p3Ysh-6 (peptide)
chain: [AEEA]FGYNV[pY]G
Binder B11 has a Kd (STEP32 C/S [8]) of 6130 nM, a Kd (STEP32 C/S [9]) of 6130 nM and a Ki (STEP32 C/S [7]) of 6960 nM.

B12: p3Ysh-3 (peptide)
chain: [AEEA]EGYNV[pY]
B12 showed a Kd (STEP32 C/S [8]) of 53.1 nM, a Kd (STEP32 C/S [9]) of 60 nM and an IC50 (STEP32 C/S [2]) of 2600 nM. For the same binder, the Ki (STEP32 C/S [7]) was 1640 nM and the Ki (STEP32 C/S [3]) was 690 nM.

B13: p-fin 4 (peptide)
chain: EGYNV[pY]E
B13 showed a Kd (STEP32 C/S [8]) of 88.4 nM, a Kd (STEP32 C/S [10]) of 90 nM and an IC50 (STEP32 C/S [2]) of 1860 nM. It also gave a Ki (STEP32 C/S [3]) of 360 nM.

B14: p3YAla10 (peptide)
chain: ATYKEGYNV[pY]A
Binder B14 has a Ki (STEP32 C/S [1]) of 2710 nM.

B15: p-fin 5 (peptide)
chain: EGYNV[pY]GD
Binder B15 has an IC50 (STEP32 C/S [2]) of 3360 nM and a Ki (STEP32 C/S [3]) of 760 nM.

B16: p3YAla3 (peptide)
chain: ATAKEGYNV[pY]G
For B16, the Ki (STEP32 C/S [1]) was 4810 nM.

B17: p3Y (peptide)
chain: ATYKEGYNV[pY]G
B17 was tested, and the Kd (STEP32 C/S [8]) was 232 nM, the Kd (STEP32 C/S [9]) was 240 nM and the Ki (STEP32 C/S [7]) was 2360 nM. The Ki (STEP32 C/S [1]) was 2820 nM.

B18: p-fin 3 (peptide)
chain: NGYNV[pY]
Work on B18 yielded an IC50 (STEP32 C/S [2]) of 8840 nM and a Ki (STEP32 C/S [3]) of 2160 nM.

B19: p3Ysh-5 (peptide)
chain: [AEEA]YV[pY]G
B19 gave a Ki (STEP32 C/S [7]) of 5340 nM.

B20: p3Ysh-4 (peptide)
chain: [AEEA]NS[pY]G
In the case of B20, the binding result (STEP32 C/S [6]) is reported as “no binding” and the Ki (STEP32 C/S [7]) is reported as 13700 nM.

B21: p3Ysh-2 (peptide)
chain: [AEEA]YNV[pY]G
B21 was tested, and the Kd (STEP32 C/S [8]) was 3960 nM, the Kd (STEP32 C/S [9]) was 3960 nM and the Ki (STEP32 C/S [7]) was 13100 nM.

B22: p3Ysh-1 (peptide)
chain: [AEEA]NV[pY]G
B22 gave a Kd (STEP32 C/S [8]) of 26000 nM, a Kd (STEP32 C/S [9]) of 26000 nM and a Ki (STEP32 C/S [7]) of 4990 nM.

B23: p3YAla2 (peptide)
chain: AAYKEGYNV[pY]G
With B23 the Ki (STEP32 C/S [1]) was 1620 nM.

B24: p3YAla4 (peptide)
chain: ATYAEGYNV[pY]G
Binder B24 has a Ki (STEP32 C/S [1]) of 2530 nM.
